This note sets out measurements from paper PMC5018250, “Structure of the Bacterial Sex F Pilus Reveals an Assembly of a Stoichiometric Protein-Phospholipid Complex” (Cell, 2016).

This series deals with the molecule itself. The series is described as follows: cryo-EM structure; purified F pili in Tris-HCl, 200 mM NaCl, pH 8.0, vitrified; helical reconstruction (IHRSR), two classes with axial rise 12.5 A and 13.2 A, 5.0 A maps.

B1: F TraA pilin (natural protein, E. coli (F plasmid; pOX38 in DH5alpha), UniProt P04737 52-121, looked up)
chain: AGSSGQDLMASGNTTVKATFGKDSSVVKWVVLAEVLVGAVMYMMTKNVKFLAGFAIISVFIAVGMAVVGL
notes: TraA pilin of the F pilus encoded by the F plasmid derivative pOX38; N terminus 4 aa longer than that of pED208 TraA and disordered in the maps; Stands in the pilus as a helical polymer; two filament populations (axial rise 12.5 A and 13.2 A); also called F pilin; F pilus subunit; source: produced in vivo from the pOX38-Cm plasmid in E. coli DH5alpha
Take B1: the binding result is given as “binds”.
